{"source": "patent EP1783227A1", "biological_target": "human CCR2 (endogenous, on THP-1 cells, THP-1 cell membranes, PBMC and whole blood leukocytes) (human) (UniProt P41597)", "sequence (P41597 whole entry)": "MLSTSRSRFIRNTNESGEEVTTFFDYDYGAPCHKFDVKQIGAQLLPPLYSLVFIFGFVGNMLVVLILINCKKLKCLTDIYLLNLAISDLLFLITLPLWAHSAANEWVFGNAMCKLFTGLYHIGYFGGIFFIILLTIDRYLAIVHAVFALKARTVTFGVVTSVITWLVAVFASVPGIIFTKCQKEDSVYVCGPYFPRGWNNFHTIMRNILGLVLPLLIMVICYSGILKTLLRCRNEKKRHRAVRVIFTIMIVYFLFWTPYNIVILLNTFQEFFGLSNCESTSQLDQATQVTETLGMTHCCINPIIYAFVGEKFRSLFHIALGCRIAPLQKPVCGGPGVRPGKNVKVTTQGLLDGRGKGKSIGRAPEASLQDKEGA", "assay": "competition with 0.1 nM [125I]MCP-1 on fresh PBMC (500,000 cells), filtration and scintillation counting", "note": "Where “and” joins values, the source holds several entries; their conditions need not be identical. Equal values may be shown once.", "data": [{"substance": "murine monoclonal antibody LS132.1D9", "values": [{"measurement": "IC50", "value": "0.2 nM and 0.04 µg/mL"}]}]}
